Test results as given in patent publication US20260194525A1.

Columns and labels:
[1] = biological target: commercially available recombinant antigen CEACAM1 (R&D Systems) (UniProt P13688); assay: ELISA on CEACAM1 coated in PBS; antibody 0.1 ug/mL with against without 10 ug/mL competitor polyclonal AF2244
[2] = biological target: CEACAM1 in a cancer specimen having a high value of CEACAM1 (human) (UniProt P13688); assay: CLEIA sandwich without denaturation: 283324 on magnetic particles, biotin-labeled BAF2244 as detector; competitor AF2244 30 ug/mL added to a cancer specimen (FIG. 12)

| binding rate by addition of anti-CEACAM1 polyclonal antibody [1] [%] | quantitative value with the polyclonal antibody added (+) against not added (-) [2] [%] | Substance |
| --- | --- | --- |
| 44.8 | – | biotin-labeled anti-CEACAM1 antibody BAF2244 (R&D Systems) |
| 41 | 3 | anti-CEACAM1 antibody 283324 (R&D Systems) |
